The source of these data is article PMC3136132.

The target in the data set is FMRP (UniProt Q06787). The experiment in a line: biotin-RNA affinity capture. The note with it: 50 mM Tris-HCl pH 7.4, 2 mM MgCl2, 150 mM KCl, 1 mM EDTA, 1 mM DTT (Schaeffer buffer without tRNA, supplemented with 125 mM NaCl); SoftLink avidin resin …; scale: fold more RNA needed than eEF-1A mRNA for comparable binding.

BC1 RNA, annealed showed a fold more RNA needed than eEF-1A mRNA of 100.
